Experimental data published in patent US20260235593A1, “FRET BIOSENSOR RECOMBINANT PROTEINS” (The Regents of the University of California, priority 2023, published 2026).

Columns and labels:
Type in all cases: cell-based
ERK = assay: Multiplexed biosensor imaging in HEK293T cells: ERK activity (yellow/far-red HaloTag-EKAR); conditions: HEK293T cells co-expressing yellow/far-red HaloTag-EKAR and red/far-red HaloTag-AKAR; 100 ng/mL hEGF
Experimental: (§1) Cell culture and transfection HeLa and HEK293T cells were cultured in Dulbecco's modified Eagle medium (DMEM; Gibco) containing glucose (1 g/L) and supplemented with 10% (v/v) fetal bovine serum (Sigma-Aldrich) and 1% (v/v) penicillin-streptomycin (Pen-Strep; Sigma-Aldrich). NIH3T3 cells were cultured in DMEM (Gibco) containing glucose (1 g/L) and supplemented with 10% (v/v) fetal calf serum and 1% (v/v) Pen-Strep (Sigma-Aldrich). All cells were maintained in a humidified incubator at 37° C. with a 5% CO2 atmosphere. Before transfection, cells were plated onto sterile quartered 35-mm glass-bottomed dishes and grown to 50 to 70% confluence. Cells were then transfected using Lipofectamine 2000 (Invitrogen, HeLa) or PolyJet (SignaGen Laboratories, HEK293T and NIH3T3) and grown an additional 48 hours (HeLa, HEK293T) before imaging. NIH3T3 cells were changed to serum-free DMEM immediately before transfection, medium was changed to complete medium after 6 h. NIH3T3 cells were then serum-starved for 24 hours before imaging. HaloTag labeling was performed 24 h before imaging using synthetic fluorophores (Fluorophore-CA 500 nM, 24 h, 37° C.) in the respective medium. Synthetic fluorophores were kindly provided by Luke Lavis (Janelia Research Campus, JF669-CA, JFX646-CA and JF635) or Kai Johnsson (Max Planck Institute for Medical Research (Germany) and EPFL (Switzerland), NGD-CA). […]

PKA [1] = target: T1, PKA (Homo sapiens, UniProt P17612); assay: Multiplexed biosensor imaging in HEK293T cells: PKA activity (red/far-red HaloTag-AKAR); conditions: HEK293T cells co-expressing yellow/far-red HaloTag-EKAR and red/far-red HaloTag-AKAR; 100 ng/mL hEGF; Fsk and 100 μM IBMX together; M H89
T1 construct: endogenous in cells; host or cells: HEK293T; only the biosensors are transfected
Experimental: as §1

PKA [2] = assay: HaloTag-based FluoSTEP-AKAR co-expressed with FP11-Actin in HeLa cells, Fsk/IBMX stimulation
Text: Recently, anew biosensor design was developed using self-complementing split green FP (GFP) as the FRET donor. The self-complementation allowed the biosensors to be recruited and reconstituted at proteins of interest (POI) endogenously tagged with the FPs eleventh-strand (FP11). This allowed researchers to monitor compartmentalized signaling within endogenous microdomains without overexpressing the POI^[11]. However, this concept, fluorescent biosensors targeted to endogenous proteins (FluoSTEPs), suffers from two major limitations: low dynamic range and low brightness^[11]. Given the promising dynamic range achieved using HaloTag^(JF669) as a FRET acceptor in KARs, we decided to introduce HaloTag into FluoSTEP-AKAR. We replaced mRuby2 in FluoSTEP-AKAR with HaloTag and additionally introduced the EV linker to further increase the dynamic range. In order to address the limitation of low brightness of sfGFP as a FRET donor, we tested the use of two different split mNeonGreen (mNG) versions: split mNeonGreen2 (mNG2)^[22] and split mNeonGreen3A (mNG3A)[^21] in parallel (FIG. 8A). We co-expressed the generated biosensors with FP11-Actin in HeLa cells and used Fsk and IBMX to stimulate the reporters to monitor PKA signal. […] Consistent with previous results biosensors with HaloTag at the C-terminus performed best. […]

PKA [3] = assay: FluoSTEP-AKAR in HeLa cells endogenously expressing mNG11 (knock-in), Fsk/IBMX treatment; conditions: HeLa-mNG11-β-Actin, HeLa-mNG11-clathrin and HeLa-mNG11-ezrin cells; 50 M Fsk and 100 μM IBMX
Experimental: Using our enhanced HaloTag-based FluoSTEPs mNG3A(1-10)-FHA1-xx aa EV linker-PKA substrate-HaloTag^(JF669) (xx=220 and 116 aa) we measured PKA activation upon treatment with 50 M Fsk and 100 μM IBMX in HeLa cells endogenously expressing mNG11 at different locations (CRISPER-mediated knock-in).

PKA activity (PKA [1]) | Molecule | ERK activity (ERK) | increase when stimulated (dynamic range) (PKA [2]; HeLa cells co-expressing FP11-Actin, Fsk and IBMX, HaloTag labeled with JF669, mean±SEM) | dynamic range relative to the conventional FluoSTEP (PKA [2]; same experimental conditions, conventional FluoSTEP-AKAR of reference [11]) | response (PKA activation) compared between EV linker lengths (PKA [3])
increase in both ERK and PKA activity | hEGF: human epidermal growth factor (protein, UniProt P01133 23-1207, looked up, Pro-epidermal growth factor) Pro-epidermal growth factor: PQHWSCPEGTLAGNGNSTCVGPAPFLIFSHGNSIFRIDTEGTNYEQLVVDAGVSVIMDFHYNEKRIYWVDLERQLLQRVFLNGSRQERVCNIEKNVSGMAINWINEEVIWSNQQEGIITVTDMKGNNSHILLSALKYPANVAVDPVERFIFWSSEVAGSLYRADLDGVGVKALLETSEKITAVSLDVLDKRLFWIQYNREGSNSLICSCDYDGGSVHISKHPTQHNLFAMSLFGDRIFYSTWKMKTIWIANKHTGKDMVRINLHSSFVPLGELKVVHPLAQPKAEDDTWEPEQKLCKLRKGNCSSTVCGQDLQSHLCMCAEGYALSRDRKYCEDVNECAFWNHGCTLGCKNTPGSYYCTCPVGFVLLPDGKRCHQLVSCPRNVSECSHDCVLTSEGPLCFCPEGSVLERDGKTCSGCSSPDNGGCSQLCVPLSPVSWECDCFPGYDLQLDEKSCAASGPQPFLLFANSQDIRHMHFDGTDYGTLLSQQMGMVYALDHDPVENKIYFAHTALKWIERANMDGSQRERLIEEGVDVPEGLAVDWIGRRFYWTDRGKSLIGRSDLNGKRSKIITKENISQPRGIAVHPMAKRLFWTDTGINPRIESSSLQGLGRLVIASSDLIWPSGITIDFLTDKLYWCDAKQSVIEMANLDGSKRRRLTQNDVGHPFAVAVFEDYVWFSDWAMPSVMRVNKRTGKDRVRLQGSMLKPSSLVVVHPLAKPGADPCLYQNGGCEHICKKRLGTAWCSCREGFMKASDGKTCLALDGHQLLAGGEVDLKNQVTPLDILSKTRVSEDNITESQHMLVAEIMVSDQDDCAPVGCSMYARCISEGEDATCQCLKGFAGDGKLCSDIDECEMGVPVCPPASSKCINTEGGYVCRCSEGYQGDGIHCLDIDECQLGEHSCGENASCTNTEGGYTCMCAGRLSEPGLICPDSTPPPHLREDDHHYSVRNSDSECPLSHDGYCLHDGVCMYIEALDKYACNCVVGYIGERCQYRDLKWWELRHAGHGQQQKVIVVAVCVVVLVMLLLLSLWGAHYYRTQKLLSKNPKNPYEESSRDVRSRRPADTEDGMSSCPQPWFVVIKEHQDLKNGGQPVAGEDGQAADGSMQPTSWRQEPQLCGMGTEQGCWIPVSSDKGSCPQVMERSFHMPSYGTQTLEGGVEKPHSLLSANPLWQQRALDPPHQMELTQ | increase in both ERK and PKA activity |  |  | 
 | mNG3A(1-10)-FHA1-EV linker-PKA substrate-HaloTag^(JF669): enhanced FluoSTEP-AKAR: split mNG3A donor, HaloTag^(JF669) acceptor, 116 aa EV linker (protein) MVSKGEEDNMASLPATHELHIFGSINGVDFDMVGQGTGNPNDGYEELNLKSTKGDLQFSPWILVPHIGYGFHQYLPYPDGMSPFQAAMVDGSGYQVHRTMQFEDGASLTVNYRYTYEGSHIKGEAQVMGTGFPADGPVMTNTLTAADLCVSKMTYPNDKTIISTFKWSYTTVNGKRYRSTARTTYTFAKPMAAKYLKNQPMYVLRKTELKHSMWTFGRNPACDYHLGNISRLSNKHFQILLGEDGNLLLNDISTNGTWLNGQKVSAGGSAGGSAGGSAGGSAGGSGSAGGSAGGSTSAGGSAGGSAGGSAGGSAGGSGSAGGSAGGSTSAGGSAGGSAGGSAGGSAGGSGSAGGSAGGSTSAGGSAGGSAGGSAGGSAGGLRRATLVDGGTGGSELMGSEIGTGFPFDPHYVEVLGERMHYVDVGPRDGTPVLFLHGNPTSSYVWRNIIPHVAPTHRCIAPDLIGMGKSDKPDLGYFFDDHVRFMDAFIEALGLEEVVLVIHDWGSALGFHWAKRNPERVKGIAFMEFIRPIPTWDEWPEFARETFQAFRTTDVGRKLIIDQNVFIEGTLPMGVVRPLTEVEMDHYREPFLNPVDREPLWRFPNELPIAGEPANIVALVEEYMDWLHQSPVPKLLFWGTPGVLIPPAEAARLAKSLPNCKAVDIGPGLNLLQEDNPDLIGSEIARWLSTLEISG |  | 71.1%±3.1% | about 8 times | diminished response compared to the sensor with the 220 aa EV linker
